We go through one substance from paper PMC6526471.

The assay addresses Patched (Ptc) receptor on C3H10T1/2 cells (mouse (endogenous in C3H10T1/2)) (UniProt Q61115).
Sequence of UniProt Q61115 (Q61115 whole entry): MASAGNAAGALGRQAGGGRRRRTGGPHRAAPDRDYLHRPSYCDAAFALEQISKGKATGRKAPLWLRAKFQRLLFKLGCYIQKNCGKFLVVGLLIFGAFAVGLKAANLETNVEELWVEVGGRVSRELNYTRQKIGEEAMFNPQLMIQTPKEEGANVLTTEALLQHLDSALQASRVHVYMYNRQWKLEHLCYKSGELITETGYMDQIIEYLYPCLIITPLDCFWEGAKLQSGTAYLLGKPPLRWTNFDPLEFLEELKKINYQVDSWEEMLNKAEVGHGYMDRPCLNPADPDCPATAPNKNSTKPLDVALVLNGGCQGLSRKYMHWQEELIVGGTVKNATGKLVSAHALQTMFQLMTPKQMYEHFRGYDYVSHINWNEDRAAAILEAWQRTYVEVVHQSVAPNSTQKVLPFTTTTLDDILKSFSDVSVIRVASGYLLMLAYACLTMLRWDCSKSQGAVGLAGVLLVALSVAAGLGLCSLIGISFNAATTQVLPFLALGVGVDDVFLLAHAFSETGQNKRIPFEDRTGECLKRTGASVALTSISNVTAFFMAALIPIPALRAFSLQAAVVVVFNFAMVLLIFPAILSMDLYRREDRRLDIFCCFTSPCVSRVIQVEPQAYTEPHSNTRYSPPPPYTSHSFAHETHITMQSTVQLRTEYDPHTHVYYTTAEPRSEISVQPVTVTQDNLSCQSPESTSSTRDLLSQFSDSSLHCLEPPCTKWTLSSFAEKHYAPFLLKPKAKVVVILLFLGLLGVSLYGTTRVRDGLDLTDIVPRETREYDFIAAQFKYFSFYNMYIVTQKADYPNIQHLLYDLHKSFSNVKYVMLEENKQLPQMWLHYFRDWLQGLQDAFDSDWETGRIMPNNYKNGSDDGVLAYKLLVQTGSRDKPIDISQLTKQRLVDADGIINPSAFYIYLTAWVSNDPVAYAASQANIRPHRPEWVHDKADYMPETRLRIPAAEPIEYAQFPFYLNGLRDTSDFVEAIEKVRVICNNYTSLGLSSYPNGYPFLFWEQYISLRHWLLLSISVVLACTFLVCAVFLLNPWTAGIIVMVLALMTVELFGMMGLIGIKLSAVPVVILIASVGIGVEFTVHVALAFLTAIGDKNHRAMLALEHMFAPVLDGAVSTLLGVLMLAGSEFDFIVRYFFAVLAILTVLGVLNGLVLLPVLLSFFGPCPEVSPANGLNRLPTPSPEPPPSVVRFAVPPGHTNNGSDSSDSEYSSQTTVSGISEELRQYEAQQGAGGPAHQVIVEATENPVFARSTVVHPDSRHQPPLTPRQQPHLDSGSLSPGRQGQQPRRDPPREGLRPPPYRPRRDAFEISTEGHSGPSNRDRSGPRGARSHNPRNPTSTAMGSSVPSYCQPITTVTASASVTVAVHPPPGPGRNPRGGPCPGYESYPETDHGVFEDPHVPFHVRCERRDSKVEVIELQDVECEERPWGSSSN

On to “Sonic hedgehog (Shh), soluble form released from Shh-expressing Panc1 cells (ligand)”, for which the Shh-induced C3H10T1/2 differentiation with 5 ug/mL HSI (0.7 sulfates/disaccharide), relative to no HS/heparin (100%) came to 70%; the Shh-induced C3H10T1/2 differentiation with 5 ug/mL HSII (1.2 sulfates/disaccharide), relative to no HS/heparin (100%) came out at 58%; the Shh-induced C3H10T1/2 differentiation with 5 ug/mL HSIII (1.4 sulfates/disaccharide), relative to no HS/heparin (100%) came out at 38%; the Shh-induced C3H10T1/2 differentiation with 5 ug/mL dp30 heparin, relative to no HS/heparin (100%) was found to be 26%. Also, the Shh-induced C3H10T1/2 differentiation with 5 ug/mL heparin, relative to no HS/heparin (100%) was 27%.
